Tests used:
nectin-1 = target: T1, nectin-1 (UniProt Q15223 31-517, limits assumed); test: western blot of lysates of MDA-MB-231 cells transfected with null vector (wt cells express nectin-1, -2, -3); similar results by FACS
T1 construct: whole, on cells
T1 sequence (looked up): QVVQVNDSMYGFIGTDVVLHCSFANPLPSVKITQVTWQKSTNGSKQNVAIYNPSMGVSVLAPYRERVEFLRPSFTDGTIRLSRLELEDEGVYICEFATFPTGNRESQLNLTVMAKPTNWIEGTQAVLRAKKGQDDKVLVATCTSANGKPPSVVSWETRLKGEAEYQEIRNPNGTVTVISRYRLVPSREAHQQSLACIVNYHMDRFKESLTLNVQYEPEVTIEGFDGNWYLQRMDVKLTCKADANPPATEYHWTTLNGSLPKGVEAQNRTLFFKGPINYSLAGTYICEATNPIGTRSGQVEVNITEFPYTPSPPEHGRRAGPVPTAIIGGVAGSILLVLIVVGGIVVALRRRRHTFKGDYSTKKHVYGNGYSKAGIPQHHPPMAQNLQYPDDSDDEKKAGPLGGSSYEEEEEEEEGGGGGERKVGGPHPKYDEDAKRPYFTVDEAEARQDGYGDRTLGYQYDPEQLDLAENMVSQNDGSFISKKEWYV

nectin-2 = target: T2, nectin-2 (UniProt Q92692 32-538, limits assumed); test: as above
T2 construct: whole, on cells
T2 sequence (looked up): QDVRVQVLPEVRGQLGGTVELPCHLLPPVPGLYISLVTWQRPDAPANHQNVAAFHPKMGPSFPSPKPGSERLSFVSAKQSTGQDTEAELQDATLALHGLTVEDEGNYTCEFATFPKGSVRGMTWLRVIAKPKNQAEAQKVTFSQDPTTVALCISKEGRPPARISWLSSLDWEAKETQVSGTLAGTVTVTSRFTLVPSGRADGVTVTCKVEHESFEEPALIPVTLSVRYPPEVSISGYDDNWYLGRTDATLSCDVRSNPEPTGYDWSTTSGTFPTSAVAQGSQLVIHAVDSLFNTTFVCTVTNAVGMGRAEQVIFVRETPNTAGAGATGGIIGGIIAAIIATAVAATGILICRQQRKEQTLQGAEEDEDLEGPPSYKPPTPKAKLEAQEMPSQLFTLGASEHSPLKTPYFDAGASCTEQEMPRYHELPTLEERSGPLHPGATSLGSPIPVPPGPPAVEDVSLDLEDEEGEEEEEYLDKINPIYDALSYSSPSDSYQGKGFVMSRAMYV

B1: 14A5.2 monoclonal antibody (antibody, V domains shown)
VH: EVLLQQSGPELVKPGASVKIPCKASGYTFTDYTMDWVKQSHGKSLEWIGDINPNNDVTMYNEKFKGRATLTVDKSSSTAYMEVRSLTSEDTAVYYCVRGRGFAYWGQGTLVTVSA
VL: DIVLTQSPASLIVSLGQRATISCRASQSVSTSSNSYMHWYQQKPGQPPKLLIRFASNLESGVPARFSGSGSGTYFTLNIHPVEEEDSATYYCQHSWEIPYTFGGGTKLEIK
notes: Parental non-chimeric monoclonal antibody; also called 14A5.2 mab; 14A5.2-HRP
binding result (nectin-1): no binding (tested: 1 µg/ml)
binding result (nectin-2): no binding (tested: 1 µg/ml)
